Earlier results as cited in article PMC3229669.

Molecular target: histone H4 N-terminal tail (UniProt P62805)

Spt16 NT domain, sequence (O94267 1-442): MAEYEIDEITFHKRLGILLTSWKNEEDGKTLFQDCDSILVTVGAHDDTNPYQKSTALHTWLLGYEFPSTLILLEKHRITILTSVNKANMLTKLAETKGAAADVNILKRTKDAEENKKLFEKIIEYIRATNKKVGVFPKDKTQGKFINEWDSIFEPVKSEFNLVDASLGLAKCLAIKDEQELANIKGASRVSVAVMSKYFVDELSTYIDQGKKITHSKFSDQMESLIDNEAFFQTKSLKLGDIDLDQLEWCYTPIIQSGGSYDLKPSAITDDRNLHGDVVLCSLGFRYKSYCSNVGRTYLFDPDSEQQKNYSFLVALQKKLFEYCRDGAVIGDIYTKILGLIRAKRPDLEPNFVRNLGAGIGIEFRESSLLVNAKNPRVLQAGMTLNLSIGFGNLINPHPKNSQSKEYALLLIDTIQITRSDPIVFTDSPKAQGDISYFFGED

Kd: 3000 nM
Substance: Spt16 NT domain (from UniProt O94267)
